Experimental findings from PMC5114850 are described below.

The target of this test is recombinant human calmodulin (human), P0DP23. Description: ITC. The settings on record: remark: other sources report otherwise.

For Ac-SQSHPVMKAFCGLLLQSS-NH2 [CaMBP1 peptide of zebrafish STRA6], the Kd – broadly, the free concentration of one partner at which half of the binding sites on the other are occupied at equilibrium, for simple one-to-one binding – was determined as 1680 nM; the dH was -7.3 kcal/mol; the stoichiometry N – broadly, the number of molecules, sites or subunits per partner or assembly – is 0.99 sites.
